This is an account of results in the supplement of paper PMC10567573.

The labels stand for the following.
B1: ZNF8 (parent)
chain: SLGRHKRTHTGEKPYTCSVCGKSF
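Further: lentivirally expressed fusions sorted by FACS into six bins by GFP to DsRed ratio, PSI derived from sequencing read proportions per bin multiplied by bin number.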

This data set covers variants of B1. Nature of the data set: protein stability index of a GFP-peptide fusion (GPS, HEK-293T) (PSI 1-6); higher = more stable. To be noted: c terminus: a fixed tail appended.
SLGRHKRTHTGEKPYTCSVCGKSC [F24C]: the protein stability index stood at 4.13.

Consider SLGRHKRTHTGEKPYTCSVCGKSD [F24D], for which the protein stability index was found to be 3.83.

For the variant SLGRHKRTHTGEKPYTCSVCGKSA [F24A], the protein stability index turned out to be 3.1.

For the variant SLGRHKRTHTGEKPYYCSVCGKSF [T16Y], the protein stability index stood at 2.61.

In the case of SLGRHKRTHTGEKPYKCSVCGKSF [T16K], the protein stability index was 2.68.

For SLGRHKRTHTGEKPYVCSVCGKSF [T16V], the protein stability index was determined as 3.01.

As to SLGRHKRTHTGEKPYLCSVCGKSF [T16L], the protein stability index turned out to be 2.25.

In the case of SLGRHKRTHTGEKPYDCSVCGKSF [T16D], the protein stability index stood at 2.81.

Take SLGRHKRTHTGEKPYRCSVCGKSF [T16R]: the protein stability index turned out to be 2.89.

As to SLGRHKRTHTGEKPYPCSVCGKSF [T16P], the protein stability index turned out to be 2.19.

Consider SLGRHKRTHTGEKPYHCSVCGKSF [T16H], for which the protein stability index worked out at 2.77.

As for SLGRHKRTHTGEKPYFCSVCGKSF [T16F], the protein stability index came to 3.04.

Consider SLGRHKRTHTGEKPYWCSVCGKSF [T16W], for which the protein stability index came to 2.33.

For the variant SLGRHKRTHTGEKPYNCSVCGKSF [T16N], the protein stability index is 2.97.

As to SLGRHKRTHTGEKPYMCSVCGKSF [T16M], the protein stability index was found to be 2.85.

On to SLGRHKRTHTGEKPYECSVCGKSF [T16E], for which the protein stability index is 2.98.

In the case of SLGRHKRTHTGEKPYQCSVCGKSF [T16Q], the protein stability index is 3.14.

For SLGRHKRTHTGEKPYCCSVCGKSF [T16C], the protein stability index worked out at 2.31.

Turning to SLGRHKRTHTGEKPYACSVCGKSF [T16A], the protein stability index came to 2.95.

As for SLGRHKRTHTGEKPYICSVCGKSF [T16I], the protein stability index turned out to be 2.75.

On to SLGRHKRTHTGEKPYSCSVCGKSF [T16S], for which the protein stability index came to 2.51.

As for SLGRHKRTHTGEKPYTCSCCGKSF [V19C], the protein stability index worked out at 3.68.

For SLGRHKRTHTGEKPYTCSACGKSF [V19A], the protein stability index is 2.36.

As to SLGRHKRTHTGEKPYTCSLCGKSF [V19L], the protein stability index was determined as 2.29.

Take SLGRHKRTHTGEKPYTCSQCGKSF [V19Q]: the protein stability index was 3.45.

SLGRHKRTHTGEKPYTCSKCGKSF [V19K]: the protein stability index came to 2.93.

For SLGRHKRTHTGEKPYTCSDCGKSF [V19D], the protein stability index is 3.5.

On to SLGRHKRTHTGEKPYTCSHCGKSF [V19H], for which the protein stability index is 3.06.

SLGRHKRTHTGEKPYTCSMCGKSF [V19M]: the protein stability index was 2.7.

With SLGRHKRTHTGEKPYTCSYCGKSF [V19Y], the protein stability index is 2.64.

On to SLGRHKRTHTGEKPYTCSTCGKSF [V19T], for which the protein stability index was found to be 2.75.

Turning to SLGRHKRTHTGEKPYTCSGCGKSF [V19G], the protein stability index turned out to be 2.7.

Take SLGRHKRTHTGEKPYTCSNCGKSF [V19N]: the protein stability index stood at 3.47.

As for SLGRHKRTHTGEKPYTCSICGKSF [V19I], the protein stability index worked out at 2.79.

Regarding SLGRHKRTHTGEKPYTCSFCGKSF [V19F], the protein stability index came out at 2.67.

On to SLGRHKRTHTGEKPYTCSECGKSF [V19E], for which the protein stability index came to 2.42.

Consider SLGRHKRTHTGEKPYTCSSCGKSF [V19S], for which the protein stability index is 3.04.

In the case of SLGRHKRTHTGEKPYTCSWCGKSF [V19W], the protein stability index was 1.88.

Take SLGRHKRTHTGEKPYTCSPCGKSF [V19P]: the protein stability index stood at 3.06.

Take SLGRHKRTHTGEKPYTCSRCGKSF [V19R]: the protein stability index was 3.15.

Turning to SLGRHKRTHTGEKPRTCSVCGKSF [Y15R], the protein stability index is 2.61.

SLGRHKRTHTGEKPSTCSVCGKSF [Y15S]: the protein stability index worked out at 2.9.

Turning to SLGRHKRTHTGEKPPTCSVCGKSF [Y15P], the protein stability index was found to be 2.29.

In the case of SLGRHKRTHTGEKPGTCSVCGKSF [Y15G], the protein stability index worked out at 2.45.

SLGRHKRTHTGEKPWTCSVCGKSF [Y15W]: the protein stability index is 2.63.

As for SLGRHKRTHTGEKPCTCSVCGKSF [Y15C], the protein stability index is 3.79.

With SLGRHKRTHTGEKPITCSVCGKSF [Y15I], the protein stability index was determined as 2.59.

With SLGRHKRTHTGEKPATCSVCGKSF [Y15A], the protein stability index worked out at 2.58.

SLGRHKRTHTGEKPDTCSVCGKSF [Y15D]: the protein stability index was found to be 2.46.

As for SLGRHKRTHTGEKPKTCSVCGKSF [Y15K], the protein stability index turned out to be 2.72.

For the variant SLGRHKRTHTGEKPHTCSVCGKSF [Y15H], the protein stability index stood at 2.34.

Take SLGRHKRTHTGEKPETCSVCGKSF [Y15E]: the protein stability index was 2.89.

For the variant SLGRHKRTHTGEKPLTCSVCGKSF [Y15L], the protein stability index came out at 2.44.

Regarding SLGRHKRTHTGEKPMTCSVCGKSF [Y15M], the protein stability index is 2.52.

With SLGRHKRTHTGEKPFTCSVCGKSF [Y15F], the protein stability index was determined as 2.36.

Consider SLGRHKRTHTGEKPTTCSVCGKSF [Y15T], for which the protein stability index was found to be 2.3.

Consider SLGRHKRTHTGEKPQTCSVCGKSF [Y15Q], for which the protein stability index was found to be 2.33.

Turning to SLGRHKRTHTGEKPVTCSVCGKSF [Y15V], the protein stability index was 2.44.

For the variant SLGRHKRTHTGEKPNTCSVCGKSF [Y15N], the protein stability index turned out to be 2.33.

Regarding SLGRHKRTHTGEKPYTCSVDGKSF [C20D], the protein stability index was 3.99.

Take SLGRHKRTHTGEKPYTCSVPGKSF [C20P]: the protein stability index was found to be 3.36.

As for SLGRHKRTHTGEKPYTCSVAGKSF [C20A], the protein stability index worked out at 3.05.

In the case of SLGRHKRTHTGEKPYTCSVKGKSF [C20K], the protein stability index was 3.23.

Regarding SLGRHKRTHTGEKPYTCSVTGKSF [C20T], the protein stability index was determined as 3.44.

Consider SLGRHKRTHTGEKPYTCSVGGKSF [C20G], for which the protein stability index came out at 3.18.

Take SLGRHKRTHTGEKPYTCSVLGKSF [C20L]: the protein stability index stood at 2.45.

Regarding SLGRHKRTHTGEKPYTCSVQGKSF [C20Q], the protein stability index came out at 3.42.

SLGRHKRTHTGEKPYTCSVVGKSF [C20V]: the protein stability index is 3.13.

For the variant SLGRHKRTHTGEKPYTCSVRGKSF [C20R], the protein stability index came out at 2.98.

For the variant SLGRHKRTHTGEKPYTCSVNGKSF [C20N], the protein stability index amounted to 3.51.

In the case of SLGRHKRTHTGEKPYTCSVFGKSF [C20F], the protein stability index turned out to be 2.47.

As for SLGRHKRTHTGEKPYTCSVYGKSF [C20Y], the protein stability index amounted to 2.94.

With SLGRHKRTHTGEKPYTCSVIGKSF [C20I], the protein stability index worked out at 2.94.

On to SLGRHKRTHTGEKPYTCSVEGKSF [C20E], for which the protein stability index stood at 3.78.

For the variant SLGRHKRTHTGEKPYTCSVWGKSF [C20W], the protein stability index was 2.4.

Consider SLGRHKRTHTGEKPYTCSVSGKSF [C20S], for which the protein stability index stood at 4.

For SLGRHKRTHTGEKPYTCSVMGKSF [C20M], the protein stability index is 3.36.

Regarding SLGRHKRTHTGEKPYTCSVHGKSF [C20H], the protein stability index is 2.79.

In the case of SLGRHKRTHTGEKKYTCSVCGKSF [P14K], the protein stability index was found to be 2.83.

With SLGRHKRTHTGEKSYTCSVCGKSF [P14S], the protein stability index is 3.3.

As to SLGRHKRTHTGEKFYTCSVCGKSF [P14F], the protein stability index came out at 3.14.

On to SLGRHKRTHTGEKNYTCSVCGKSF [P14N], for which the protein stability index came out at 3.21.

For SLGRHKRTHTGEKLYTCSVCGKSF [P14L], the protein stability index turned out to be 3.73.

For the variant SLGRHKRTHTGEKWYTCSVCGKSF [P14W], the protein stability index was determined as 3.82.

For SLGRHKRTHTGEKYYTCSVCGKSF [P14Y], the protein stability index stood at 3.

SLGRHKRTHTGEKGYTCSVCGKSF [P14G]: the protein stability index stood at 2.44.

On to SLGRHKRTHTGEKRYTCSVCGKSF [P14R], for which the protein stability index was 2.63.

As to SLGRHKRTHTGEKQYTCSVCGKSF [P14Q], the protein stability index was found to be 3.

For the variant SLGRHKRTHTGEKVYTCSVCGKSF [P14V], the protein stability index came out at 3.18.

Regarding SLGRHKRTHTGEKEYTCSVCGKSF [P14E], the protein stability index stood at 2.8.

Take SLGRHKRTHTGEKMYTCSVCGKSF [P14M]: the protein stability index turned out to be 2.72.

Regarding SLGRHKRTHTGEKHYTCSVCGKSF [P14H], the protein stability index was determined as 2.89.

Regarding SLGRHKRTHTGEKIYTCSVCGKSF [P14I], the protein stability index worked out at 3.47.

In the case of SLGRHKRTHTGEKTYTCSVCGKSF [P14T], the protein stability index amounted to 3.77.
